Test results taken from patent US9512428B2, “Method of deriving mature hepatocytes from human embryonic stem cells” (Wisconsin Alumni Research Foundation, priority 2012, dated 2016).
Entries after “also recorded” stand apart in the source; their conditions may differ.

How the values were obtained:
[1] = tested on: CYP1A2; assay: CYP1A2 induction by omeprazole in transduced hESC-derived hepatocytes (quantitative PCR); format: in vitro ADME, human
Method: Induction of this enzyme was also measured in HepG2 human hepatocytes and in fresh primary human hepatocytes. Expression was measured by quantitative PCR, and the expression levels are shown as GAPDH normalized gene expression values (RQ values or relative quantity values. Error bars indicate RQ min and RQ max values).
(RQ values or relative quantity values. Error bars indicate RQ min and RQ max values).
Omeprazole and rifampicin (also known as rifampin; Sigma) were added to DMEM at 100 μM and 10 μM respectively for 3 days. The resulting medium was analyzed by mass spectrometry. Metabolites of the tested drugs, omeprazole sulfone (Santa Cruz Biotechnology), 5-hydroxy omeprazole (Cachesyn), and desacetyl rifampicin (Santa Cruz Biotechnology) were dissolved in DMEM to prepare standard curves.

[2] = tested on: hESC derived hepatocytes; assay: Rifampin metabolism to 25-des acetyl rifampin in hESC derived hepatocytes (LC-MS/MS); details: hESC derived hepatocytes co-transduced with let-7c and mir-122, 72 hours incubation
[3] = tested on: hepatitis B virus (HBV); assay: HBV infection and replication in transduced hESC-derived hepatocytes (viral genome QPCR); format: cell-based
Method: FIG. 8 is a bar graph showing that HBV infects and replicates in human embryonic stem cell-derived hepatocytes. Number of copies of the HBV genome is reported for human embryonic stem cell-derived hepatocytes transduced with mir-122 infected with HBV (es heps with miRNA), positive control (human heps), and negative controls (hepg2). The copy numbers were calculated by QPCR. QPCR standard curve was prepared by serial dilution of LJ144, a construct that contains the whole viral genome. Both LJ144 and QPCR primers were disclosed by Watanabe et al. (PNAS 2007 104 (24)).
The copy numbers were calculated by QPCR. QPCR standard curve was prepared by serial dilution of LJ144, a construct that contains the whole viral genome. Both LJ144 and QPCR primers were disclosed by Watanabe et al. (PNAS 2007 104 (24)). […]
Infected cells were lysed at 6 days post-infection and treated with micrococcal nuclease. […] QPCR was performed to quantify the viral genomes present in the isolated DNA using the QPCR primers disclosed by Watanabe et al. (PNAS 2007 104 (24)). […]
Infectious HBV virions were concentrated from media of HepAD38 cells (Ladner et al. 1997) by PEG 8000 precipitation followed by centrifugation. […] Viral genome copy numbers were quantified by QPCR using primers previously published (see Watanabe et al. 2007). […]

[4] = tested on: hES cell-derived fetal hepatocytes; assay: QPCR of liver genes in hES cell-derived fetal hepatocytes after lentiviral transduction of mir-122; format: cell-based, human
Excerpt: We next determined whether forced expression of mir-122 in the hES cell-derived fetal hepatocytes could program these cells to a more mature differentiated state. We expressed mir-122 in the fetal hepatocytes by lentiviral transduction. Using this method, we achieved ˜5% transduction efficiency (see FIG. 2 GFP positive cells).
These GFP positive cells were then FACS sorted, and RNA was isolated for QPCR measurements of functional genes.
H1 hES cells (J. A. Thomson et al., Science (1998) 282: 1145-1147) cultured in E8 medium (Chen et al., 2011 Nature Methods 8(5) 424-9) were differentiated to fetal hepatocytes lacking functional hepatic enzyme activity following a previously published protocol (see J. Cai et al., Hepatology (2007) 45: 1229-1239), with some modifications. Briefly, the hES cells at approximately 50% confluency were treated with 0.5 mg/ml Albumin fraction V (Sigma) and 100 ng/ml Activin A (Sigma) for 3 days. On the second day of treatment, 0.1% Insulin-transferrin-Selenium (Sigma) was added, and on the third day of treatment, 1.0% Insulin-transferrin-Selenium (Sigma) was added. From day four to day eight, the cells were treated with 30 ng/ml FGF4 (R&D Systems) along with 20 ng/ml BMP2. From days nine through thirteen, 20 ng/ml HGF (R&D Systems) were added to the medium, and finally, the cells were treated for five days with 10 ng/ml Oncostatin M (R&D Systems) and 0.1 μM Dexamethasone (Sigma). Throughout differentiation, hepatocyte growth medium (Promocell) was used as a base medium and cells were kept on Matrigel™ coated plates. […] hepatocytes were obtained for comparison studies (Celsis).
Mir-122 was transduced into the hES derived cells having hepatocyte morphology by a lentiviral vector pEZX-MR01 (Genecoepoeia). Approximately ˜5% of cells were transduced, as measured by GFP expression.
In this example, we performed a QRT PCR comparison of the gene expression levels of the mature hepatocytes produced from human embryonic stem cells according to the procedure outlined in Example 1 (ES hepatocyte expressing mir-122), the expression levels for the same proteins in human primary hepatocytes (Human hepatocyte), the expression levels for the same proteins in the fetal hepatocytes before transduction (ES hepatocyte), and the expression levels for the same proteins in HepG2 cells.

[5] = tested on: primary human hepatocytes; assay: Functional gene expression over time in primary human hepatocytes transduced with mir-122 (QPCR); format: cell-based
Method: FIGS. 6A through 6E are a bar graphs showing that lentivirus mediated DNA transfer to primary hepatocytes derived directly from liver tissue results in improved hepatic protein expression over time, as compared to control primary hepatocytes. Expression is shown for albumin (FIG. 6A), tyrosine aminotransferase (TAT) (FIG. 6B), and the CYP 450 enzymes CYP1A2 (FIG. 6C), CYP3A4 (FIG. 6D) and CYP7A1 (FIG. 6E). Expression was measured by quantitative PCR, and the reported values were normalized by GAPDH expression (RQ or relative quantity values, error bars representing standard error, RQ min and RQ max). Expression values are shown for each gene at the time the culture was established (0 day) and 9, 13 or 19 days later.
We cultured primary human hepatocytes (both control hepatocytes and hepatocytes into which vectors were transferred to express mir-122). Mir-122 was transduced into these primary hepatocytes using the lentiviral vector PEZX-MR01. GFP expressing cells were FACS sorted before RNA isolation and gene expression measurements using QPCR.

[6] = tested on: hESC derived hepatocytes; assay: QPCR of liver genes in hESC derived hepatocytes transduced with let-7c alone or with mir-122; format: cell-based, human; details: GAPDH normalized, versus non-transduced hESC derived hepatocytes
Method: (§1) Expression of albumin was also measured in HepG2, a human hepatoma cell line (hepg2). Expression was measured by quantitative PCR. Indicated expression levels (on the Y axis) are GAPDH normalized gene expression values called RQ values (relative quantity values), with HepG2 expression assigned a relative value of 1. Error bars indicate RQ min and RQ max values calculated on 1 standard deviation. All RQ, RQ min and RQ max values were calculated with ViiA7 software on Applied Biosystems QPCR system.
as §1, with “CYP7A1” for “albumin”
as §1, with “CYP3A4” for “albumin”
as §1, with “AFP” for “albumin”
Expression of AFP was also measured in HepG2, a human hepatoma cell line (hepg2). Expression was measured by quantitative PCR.

COc1ccc2[nH]c([S+]([O-])Cc3ncc(C)c(OC)c3C)nc2c1 (centres unmarked) [omeprazole]
induction of CYP1A2 upon drug challenge ([1]; hESC-derived hepatocytes transduced with both mir-122 and let-7c, versus non-drug treated (ND) cells): strongly induced; also recorded: induced the expression | induction of CYP1A2 upon drug challenge ([1]; hESC-derived hepatocytes with let-7c alone, no concurrent mir-122): did not elicit induction | expression of CYP1A2 upon addition of drug ([1]; mir-122 transduced hES cell-derived hepatocytes, 100 μM for 3 days): substantially up-regulated

CO[C@H]1/C=C/O[C@@]2(C)Oc3c(C)c(O)c4c(O)c(c(/C=N/N5CCN(C)CC5)c(O)c4c3C2=O)NC(=O)/C(C)=C\C=C\[C@H](C)[C@H](O)[C@@H](C)[C@@H](O)[C@@H](C)[C@H](OC(C)=O)[C@@H]1C [rifampicin]
efficiency of metabolism to 25-des acetyl rifampin [2]: comparable to primary human hepatocytes

B1: mir-122: human microRNA mir-122 (pre-miRNA SEQ ID NO:1, mature SEQ ID NO:2); coding DNA transferred by lentiviral vector (nucleic acid, listed as Homo sapiens)
chain 1: CCUUAGCAGAGCUGUGGAGUGUGACAAUGGUGUUUGUGUCUAAACUAUCAAACGCCAUUAUCACACUAAAUAGCUACUGCUAGGC
chain 2: UGGAGUGUGACAAUGGUGUUUG
HBV genomes present per well ([3]; mir-122 transduced hESC-derived hepatocytes, 6 days post-infection): presence of HBV genomes | expression of functional genes (quantitative PCR) ([4]; GFP positive FACS sorted hES cell-derived hepatocytes expressing miR-122): significant up-regulation | expression of functional genes (alb, tat, CYP1A2, CYP7A1, CYP3A4, aat) compared with primary hepatocytes ([4]; QRT PCR, transduced mature hepatocytes versus human primary hepatocytes): equal or greater expression than in primary hepatocytes | transduction efficiency ([4]; lentiviral transduction, GFP positive cells): ~5% | alpha-feto protein expression ([4]; mir-122 expressing hESC-derived hepatocytes): not down-regulated | CYP gene expression compared with fresh hepatocytes (day 0) ([5]; mir-122 expressing primary hepatocytes in culture): equal or greater amount | mRNA levels of functional genes that decreased in control culture ([5]; primary hepatocytes cultured 9 days or more, overexpressing mir-122): regained their expression

B2: let-7c: human microRNA let-7c (pre-miRNA SEQ ID NO:3, mature SEQ ID NO:4); coding DNA transferred by lentiviral vector pEZX-MR03 (nucleic acid, listed as Homo sapiens)
chain 1: GCAUCCGGGUUGAGGUAGUAGGUUGUAUGGUUUAGAGUUACACCCUGGGAGUUAACUGUACAACCUUCUAGCUUUCCUUGGAGC
chain 2: UGAGGUAGUAGGUUGUAUGGUU
productive infection by HBV (relative number of copies of the HBV genome) ([3]; transduced versus non-transduced hESC-derived hepatocytes, seventh day after infection): significantly down-regulated | AFP (alpha-feto protein) expression [6]: down-regulated | CYP1A2 expression [6]: up-regulated | CYP3A4 expression [6]: up-regulated | CYP7A1 expression [6]: up-regulated | albumin expression [6]: up-regulated
